Measured values reported in PMC6315623.

B1: unnamed (parent)
chain 1: PHLSRQPEQPEQRALGPVSMPNLVPEVIDLTCHEAGFPPSDDEDEEG
chain 2: MPQPIEKVSVSTQTKKLSASSPRMLHRSTQTTNDGVCQSMCHDKYTKIFNDFKDRMKSDHKRETERVVREALEKLRSEMEEEKRQAVNKAVANMQGEMDRKCKQVKEKCKEEFVEEIKKLATQHKQLISQTKKKQWCYNCEEEAMYHCCWNTSYCSIKCQQEHWHAEHKRTCRRKR

Variants of: B1
Assay: yeast two-hybrid (β-galactosidase activity)
Conditions: with partner chain of the complex shown; n = 3; parent: 100; read off a plot
chain 1 PHLSRQPEQPEQRALGPVSMPNLVPAVIDLTCHEAGFPPSDDEDEEG [chain 1 E26A] gave a percent of parent of 150%. chain 1 PHLSRQPEQPEQRALGPVSMPALVPEVIDLTCHEAGFPPSDDEDEEG [chain 1 N22A] gave a percent of parent of 100%. With chain 1 PHLSRQPEQPEQRALGPVAMPNLVPEVIDLTCHEAGFPPSDDEDEEG [chain 1 S19A] the percent of parent was 89%. chain 1 PHLSRQPEQPEQRALGPVSMPNLAPEVIDLTCHEAGFPPSDDEDEEG [chain 1 V24A] showed a percent of parent of 100%. With chain 1 PHLSRQPEQPEQRALGPVSAPNLVPEVIDLTCHEAGFPPSDDEDEEG [chain 1 M20A] the percent of parent was 160%. chain 1 PHLSRQPEQPEQRALGPVSMPNLVPEAIDLTCHEAGFPPSDDEDEEG [chain 1 V27A] showed a percent of parent of 130%. Work on chain 1 PHLSRQPEQPEQRALGPVSMPNLVAEVIDLTCHEAGFPPSDDEDEEG [chain 1 P25A] yielded a percent of parent of 180%. Variant chain 1 PHLSRQPEQPEQRALGPVSMPNLVPEVADLTCHEAGFPPSDDEDEEG [chain 1 I28A] has a percent of parent of 140%.
